The results in this text go back to patent US20240132615A1 (ICHNOS SCIENCES, published 2024).

The target of test [1] is T1, recombinant cynomolgus monkey CD38-ECD-C-his protein (cynomolgus monkey, UniProt Q5VAN0 45-301).
T1 construct: made in house; Q5VAN0 residues 43-301 (residue 44 deleted) with C-terminal 6-His; also called cynomolgus monkey CD38-C-His; recombinant cynomolgus monkey CD38 protein
As to the kind of experiment: SPR, Fab as analyte, captured cynomolgus CD38-his.
Method: (§1) Surface plasmon resonance (SPR) was used to measure the binding affinities of the Fab fragments for human and cynomolgus monkey CD38. Affinities were measured on a Biacore T200 instrument (Cytiva Life Sciences) at 25° C. and analyzed with the Biacore T200 Evaluation Software (v3.1).
(§2) The affinities to human and cynomolgus monkey CD38 were assessed by immobilizing CD38 and using Fab fragments as analyte. […] Fab fragments were injected in single cycle kinetic at different concentrations ranging from 7.8 to 2000 nM, in HBS-EP+ buffer (Cytiva Life Sciences, catalog NO: BR100669) at a flow rate of 30 μl/min for 3 min on flow-path 1 and 2 (flow-path 1 being used as reference). Dissociation was monitored for 5 min. […] Experimental data were processed using the 1:1 Langmuir kinetic fitting model.

Test [2] has as its target T2, Biotinylated Human CD38 Protein, Avitag, His Tag (Acrobiosystems CD8-H82E7) (human, UniProt P28907 43-300, biotinylated).
T2 construct: bought protein; also called biotinylated recombinant human CD38 protein; human CD38-avi-his
As to the kind of experiment: SPR, Fab as analyte, immobilised biotinylated human CD38.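 Also: biacore T200 at 25 °C, single-cycle kinetics with Fab from 7.8 to 2000 nM, 3 min association then 5 min dissociation, fitted with a 1:1 Langmuir model.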 On the technique in general: Surface plasmon resonance follows binding to a sensor surface in real time, without labels.
Method: as §1, §2

B1: Anti-CD38-UCP01-C2 Fab (Fab, V domains shown)
VH: QVQLVQSGAEVKKPGSSVKVSCKASGGYLGIYAISWVRQAPGQGLEWMGRIIPILGEADYAQKFQGRVTITADESTSTAYMELSSLRSEDTAVYYCARGGVWWDYWGQGTLVTVSS
VL: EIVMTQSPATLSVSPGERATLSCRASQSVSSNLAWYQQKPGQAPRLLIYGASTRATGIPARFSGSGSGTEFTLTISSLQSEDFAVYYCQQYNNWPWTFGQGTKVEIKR
notes: Fab
As for B1, the values for the Kd in test [1] and in test [2] were 53.5 nM and 85.3 nM, respectively.

B2: Anti-CD38-UCP01-H1 Fab (Fab, V domains shown)
VH: QVQLVQSGAEVKKPGSSVKVSCKASGDFFSGYAINWVRQAPGQGLEWMGRIIPLLGDTYYAQKFQGRVTITADESTSTAYMELSSLRSEDTAVYYCARSAAGWFAYWGQGTLVTVSS
VL: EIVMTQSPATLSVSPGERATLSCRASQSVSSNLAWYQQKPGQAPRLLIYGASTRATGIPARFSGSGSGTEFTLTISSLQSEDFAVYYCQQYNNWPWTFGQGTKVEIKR
notes: Fab
With B2, the figures for the dissociation constant (Kd) in test [1] and in test [2] were 352 nM and 437 nM, respectively.

B3: Anti-CD38-UCP02-B1 Fab (Fab, V domains shown)
VH: QVQLVQSGAEVKKPGSSVKVSCKASGGQFSFYAINWVRQAPGQGLEWMGEIIPDYGVTHYAQKFQGRVTITADESTSTAYMELSSLRSEDTAVYYCARWSYTYGIRYYYKLFDPWGQGTLVTVSS
VL: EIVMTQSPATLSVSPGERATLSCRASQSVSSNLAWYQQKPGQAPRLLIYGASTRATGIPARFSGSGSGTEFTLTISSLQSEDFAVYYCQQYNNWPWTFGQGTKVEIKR
notes: Fab
Take B3: the Kd (in general, the concentration at which binding is half-saturated) in test [2] turned out to be 595 nM.

B4: Anti-CD38-UCP02-E5 Fab (Fab, V domains shown)
VH: QVQLVQSGAEVKKPGSSVKVSCKASGGGFRHYFISWVRQAPGQGLEWMGGIIPAAATPYYAQKFQGRVTITADESTSTAYMELSSLRSEDTAVYYCARGYWHWFDYWGQGTLVTVSS
VL: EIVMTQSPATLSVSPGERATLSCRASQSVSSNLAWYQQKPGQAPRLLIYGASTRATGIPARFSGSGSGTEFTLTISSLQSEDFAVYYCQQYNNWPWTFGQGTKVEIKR
notes: Fab
For the molecule B4, binding in test [2] was put at a Kd of 0.03 nM.

B5: Anti-CD38-UCP01-G1 Fab (Fab, V domains shown)
VH: QVQLVQSGAEVKKPGSSVKVSCKASGGGFSKYFITWVRQAPGQGLEWMGGVIPKIGYTSYAQKFQGRVTITADESTSTAYMELSSLRSEDTAVYYCARGSDDYASYSPLDSWGQGTLVTVSS
VL: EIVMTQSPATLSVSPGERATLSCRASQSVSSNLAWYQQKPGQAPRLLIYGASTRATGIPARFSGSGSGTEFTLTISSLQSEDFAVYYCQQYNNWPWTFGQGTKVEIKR
notes: Fab
As for B5, the Kd in test [1] amounted to 283 nM; in test [2], 1120 nM.

B6: Anti-CD38-UCP02-B7 Fab (Fab, V domains shown)
VH: EVQLVESGGGLVKPGGSLRLSCAASGFSFNEAWMTWVRQAPGKGLEWVGRIKSYSDGGYTGYAAPVKGRFTISRDDSKNTLYLQMNSLKTEDTAVYYCARSPGIPYHYFDVWGQGTLVTVSS
VL: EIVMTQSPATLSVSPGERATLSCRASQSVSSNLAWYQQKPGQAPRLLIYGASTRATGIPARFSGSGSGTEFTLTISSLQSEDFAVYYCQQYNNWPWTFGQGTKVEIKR
notes: Fab
In turn, B6 yielded a Kd in test [2] of 1710 nM.

B7: Anti-CD38-UCP02-F5 Fab (Fab, V domains shown)
VH: QVQLVQSGAEVKKPGSSVKVSCKASGGVFSYYTISWVRQAPGQGLEWMGRIIPSLGATHYAQKFQGRVTITADESTSTAYMELSSLRSEDTAVYYCARSDSFYYAYYMDLWGQGTLVTVSS
VL: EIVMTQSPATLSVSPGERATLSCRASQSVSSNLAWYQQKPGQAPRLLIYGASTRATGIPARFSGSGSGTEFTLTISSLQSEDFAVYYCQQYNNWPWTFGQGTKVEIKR
notes: Fab
With B7, the results for the Kd in test [1] and in test [2] were 55.2 nM and 71.1 nM, respectively.

B8: Anti-CD38-UCP02-A7 Fab (Fab, V domains shown)
VH: EVQLLESGGGLVQPGGSLRLSCAASGFTFSFYDMSWVRQAPGKGLEWVSTITLHGGDTYYADSVKGRFTISRDNSKNTLYLQMNSLRAEDTAVYYCARDPSYIYSTSGYFDYWGQGTLVTVSS
VL: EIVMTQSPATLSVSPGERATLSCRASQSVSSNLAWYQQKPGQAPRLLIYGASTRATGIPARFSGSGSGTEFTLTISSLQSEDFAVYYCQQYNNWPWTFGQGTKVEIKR
notes: Fab
In test [2], B8 showed a Kd of 71.1 nM.

B9: Anti-CD38-UCP01-B1 Fab (Fab, V domains shown)
VH: QVQLVQSGAEVKKPGSSVKVSCKASGGDFDQYYISWVRQAPGQGLEWMGRIIPTLGDSQYAQKFQGRVTITADESTSTAYMELSSLRSEDTAVYYCARAVIVSPYYYIYVFDVWGQGTLVTVSS
VL: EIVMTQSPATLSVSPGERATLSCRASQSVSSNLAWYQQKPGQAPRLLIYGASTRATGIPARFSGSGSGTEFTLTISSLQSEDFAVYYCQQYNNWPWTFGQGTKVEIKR
notes: Fab
Regarding B9, the Kd was determined as 102 nM in test [1] and 193 nM in test [2].

B10: Anti-CD38-UCP02-D1 Fab (Fab, V domains shown)
VH: QVQLVQSGAEVKKPGSSVKVSCKASGGDFDQYYISWVRQAPGQGLEWMGRIIPTLGDSQYAQKFQGRVTITADESTSTAYMELSSLRSEDTAVYYCARAVIVSPYYYIYVFDVWGQGTLVTVSS
VL: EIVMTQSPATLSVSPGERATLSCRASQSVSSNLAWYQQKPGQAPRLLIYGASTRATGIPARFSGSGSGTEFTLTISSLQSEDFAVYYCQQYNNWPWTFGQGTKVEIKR
notes: Fab
For B10, the Kd in test [1] amounted to 78 nM; in test [2] it was 133 nM.

B11: Anti-CD38-UCP02-D5 Fab (Fab, V domains shown)
VH: QVQLVQSGAEVKKPGSSVKVSCKASGGIFSVHAIHWVRQAPGQGLEWMGEIIPVIGEADYAQKFQGRVTITADESTSTAYMELSSLRSEDTAVYYCAREQYYYALGGGFDYWGQGTLVTVSS
VL: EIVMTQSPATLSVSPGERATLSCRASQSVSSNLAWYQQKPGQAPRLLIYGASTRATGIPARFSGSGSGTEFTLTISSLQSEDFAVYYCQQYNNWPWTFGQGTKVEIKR
notes: Fab
Regarding B11, the Kd turned out to be 33.5 nM in test [1] and 192 nM in test [2].

B12: Anti-CD38-UCP03-H5 Fab (Fab, V domains shown)
VH: QVQLVQSGAEVKKPGSSVKVSCKASGGLFSFYAISWVRQAPGQGLEWMGGIIPFFGEPQYAQKFQGRVTITADESTSTAYMELSSLRSEDTAVYYCARGSYRFDVWGQGTLVTVSA
VL: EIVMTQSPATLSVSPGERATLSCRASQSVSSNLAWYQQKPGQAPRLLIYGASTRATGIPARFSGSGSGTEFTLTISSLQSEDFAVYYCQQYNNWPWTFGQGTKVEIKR
notes: Fab
With B12, the Kd came out at 11 nM in test [1] and 142 nM in test [2].

B13: Anti-CD38-UCP02-F2 Fab (Fab, V domains shown)
VH: QVQLVQSGAEVKKPGSSVKVSCKASGDVFSLLAIGWVRQAPGQGLEWMGRIIPSLDATHYAQKFQGRVTITADESTSTAYMELSSLRSEDTAVYYCARGRDVLRSYYFDIWGQGTLVTVSS
VL: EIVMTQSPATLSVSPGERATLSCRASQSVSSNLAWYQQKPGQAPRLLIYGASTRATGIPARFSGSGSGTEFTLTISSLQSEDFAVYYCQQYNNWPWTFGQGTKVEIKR
notes: Fab
For the molecule B13, the Kd in test [1] came to 14 nM; in test [2] it was 14.2 nM.

B14: Anti-CD38-UCP02-H1 Fab (Fab, V domains shown)
VH: QVQLVQSGAEVKKPGSSVKVSCKASGDKFNTYAISWVRQAPGQGLEWMGGITPRYDYAHYAQKFQGRVTITADESTSTAYMELSSLRSEDTAVYYCARSWGFRAGYLDYWGQGTLVTVSS
VL: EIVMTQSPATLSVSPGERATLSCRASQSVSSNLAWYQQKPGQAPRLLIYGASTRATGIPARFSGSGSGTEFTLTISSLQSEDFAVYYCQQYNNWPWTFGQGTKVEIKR
notes: Fab
B14: the Kd in test [1] was 2.7 nM; in test [2], 154 nM.

B15: Anti-CD38-UCP01-E2 FAB (Fab, V domains shown)
VH: QVQLVQSGAEVKKPGSSVKVSCKASGGSFSNYAIGWVRQAPGQGLEWMGRIIPVFGSAHYAQKFQGRVTITADESTSTAYMELSSLRSEDTAVYYCARGLGYYLYSSYYFDIWGQGTLVTVSS
VL: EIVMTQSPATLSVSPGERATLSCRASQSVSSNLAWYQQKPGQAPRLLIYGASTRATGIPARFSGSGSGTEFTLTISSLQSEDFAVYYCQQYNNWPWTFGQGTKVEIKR
notes: Fab; also called anti-CD38-E2; anti-CD38-E2 Fab
As for B15, the Kd in test [1] is 89 nM; in test [2], 110 nM.

B16: Anti-CD38-UCP02-F6 Fab (Fab, V domains shown)
VH: EVQLLESGGGLVQPGGSLRLSCAASGFTFSFYDMSWVRQAPGKGLEWVSAVSLYGDETYYADSVKGRFTISRDNSKNTLYLQMNSLRAEDTAVYYCAREPVSYDYYGSYFDYWGQGTLVTVSS
VL: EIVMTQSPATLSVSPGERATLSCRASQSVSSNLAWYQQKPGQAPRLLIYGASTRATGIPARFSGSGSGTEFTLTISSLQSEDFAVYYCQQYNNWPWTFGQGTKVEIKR
notes: Fab
On to B16, for which the Kd in test [2] worked out at 389 nM.

B17: Anti-CD38-UCP03-C3 Fab (Fab, V domains shown)
VH: QVQLVQSGAEVKKPGSSVKVSCKASGGKFSNYAISWVRQAPGQGLEWMGRIIPQIGDAAYAQKFQGRVTITADESTSTAYMELSSLRSEDTAVYYCARASFLYYSYYFDYWGQGTLVTVSS
VL: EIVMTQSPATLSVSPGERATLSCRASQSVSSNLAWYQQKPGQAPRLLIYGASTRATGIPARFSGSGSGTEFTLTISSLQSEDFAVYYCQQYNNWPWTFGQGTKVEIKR
notes: Fab
As to B17, the Kd amounted to 465 nM in test [1] and 117 nM in test [2].

B18: Anti-CD38-UCP03-C2 Fab (Fab, V domains shown)
VH: QVQLVQSGAEVKKPGSSVKVSCKASGGTFSNYAISWVRQAPGQGLEWMGGIIPAFGDAGYAQKFQGRVTITADESTSTAYMELSSLRSEDTAVYYCARGRVLYYSYYFDYWGQGTLVTVSS
VL: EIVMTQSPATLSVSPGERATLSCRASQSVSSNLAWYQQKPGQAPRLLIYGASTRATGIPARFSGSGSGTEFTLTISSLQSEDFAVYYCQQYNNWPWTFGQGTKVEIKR
notes: Fab
In the case of B18, the Kd in test [1] is 628 nM; in test [2] it was 1390 nM.

B19: Anti-CD38-UCP02-C3 Fab (Fab, V domains shown)
VH: QVQLVQSGAEVKKPGSSVKVSCKASGDYFNNYAINWVRQAPGQGLEWMGRIIPFLDDANYAQKFQGRVTITADESTSTAYMELSSLRSEDTAVYYCARATSPLYSYYFDYWGQGTLVTVSS
VL: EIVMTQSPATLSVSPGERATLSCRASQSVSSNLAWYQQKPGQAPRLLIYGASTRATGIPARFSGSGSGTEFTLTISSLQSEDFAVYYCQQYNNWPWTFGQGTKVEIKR
notes: Fab
Turning to B19, the Kd in test [1] worked out at 188 nM; in test [2], 305 nM.

B20: Anti-CD38-UCP01-F1 Fab (Fab, V domains shown)
VH: QVQLVQSGAEVKKPGSSVKVSCKASGGVFSLYTITWVRQAPGQGLEWMGSIIPLLGDPEYAQKFQGRVTITADESTSTAYMELSSLRSEDTAVYYCARYPYPYGSKYFDIWGQGTLVTVSS
VL: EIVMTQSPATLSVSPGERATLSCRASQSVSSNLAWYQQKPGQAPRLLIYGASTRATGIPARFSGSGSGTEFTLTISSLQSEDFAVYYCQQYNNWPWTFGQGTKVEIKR
notes: Fab
Turning to B20, the values for the Kd in test [1] and in test [2] were 393 nM and 429 nM, respectively.

B21: Anti-CD38-UCP01-D1 Fab (Fab, V domains shown)
VH: QVQLVQSGAEVKKPGSSVKVSCKASGGIFNGYLISWVRQAPGQGLEWMGGIIPVNGLADYAQKFQGRVTITADESTSTAYMELSSLRSEDTAVYYCARTIGRYIIAFDYWGQGTLVTVSS
VL: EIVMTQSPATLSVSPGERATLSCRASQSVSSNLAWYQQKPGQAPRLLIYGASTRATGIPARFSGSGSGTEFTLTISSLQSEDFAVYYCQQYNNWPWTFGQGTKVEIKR
notes: Fab
B21: the binding result in test [1] was “no binding”. For the same molecule, in test [2], binding was put at a Kd of 666 nM.
